Results published in the supplement of paper PMC10567573.

B1: DLC1 (parent)
chain: NDDSADYQHFLQDCVDGLFKEVKE

Variants of: B1
Assay: protein stability index of a GFP-peptide fusion (GPS, HEK-293T) (PSI 1-6); higher = more stable
Conditions: c terminus: a fixed tail appended
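Note: lentivirally expressed fusions sorted by FACS into six bins by GFP to DsRed ratio, PSI derived from sequencing read proportions per bin multiplied by bin number.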

Variant | protein stability index
NDDSADYQHFLQDSVDGLFKEVKE [C14S] | 4.91
NDDSADYQHFLQDPVDGLFKEVKE [C14P] | 5.07
NDDSADDQHFLQDCVDGLFKEVKE [Y7D] | 4.17
NDDSADHQHFLQDCVDGLFKEVKE [Y7H] | 4.36
NDDSADTQHFLQDCVDGLFKEVKE [Y7T] | 3.31
NDDSADSQHFLQDCVDGLFKEVKE [Y7S] | 3.89
NDASADYQHFLQDCVDGLFKEVKE [D3A] | 2.77
NDWSADYQHFLQDCVDGLFKEVKE [D3W] | 1.71
NDFSADYQHFLQDCVDGLFKEVKE [D3F] | 3.3
NDDSADYQHFLQDCVDGYFKEVKE [L18Y] | 3.71
NDDSADYQHFLQDCVDGDFKEVKE [L18D] | 5.73
NDDSADYQHFLQDCVDGLFKGVKE [E21G] | 3.51
NDDSADYQHFLQDCVDGLFKTVKE [E21T] | 1.98
NDDSADYQHFLQDCVDGLFKKVKE [E21K] | 2.57
NDDSADYQHFLQDCVDGLFKRVKE [E21R] | 2.55
NDDSADYQHFLQDCVDGLFKYVKE [E21Y] | 2.03
VDDSADYQHFLQDCVDGLFKEVKE [N1V] | 1.56
HDDSADYQHFLQDCVDGLFKEVKE [N1H] | 2.29
DDDSADYQHFLQDCVDGLFKEVKE [N1D] | 1.72
NDDSRDYQHFLQDCVDGLFKEVKE [A5R] | 2.49
NDDSSDYQHFLQDCVDGLFKEVKE [A5S] | 1.91
NDDSGDYQHFLQDCVDGLFKEVKE [A5G] | 2.4
NDDSQDYQHFLQDCVDGLFKEVKE [A5Q] | 2.55
NDDSMDYQHFLQDCVDGLFKEVKE [A5M] | 2.15

Variant | protein stability index
NDDSFDYQHFLQDCVDGLFKEVKE [A5F] | 1.68
NDDSKDYQHFLQDCVDGLFKEVKE [A5K] | 2.93
NDDSADYQHFLQDCVLGLFKEVKE [D16L] | 2.12
NDDSADYQHFLQDCVFGLFKEVKE [D16F] | 2.34
NDDSADYQHYLQDCVDGLFKEVKE [F10Y] | 2.75
NDDSADYQHRLQDCVDGLFKEVKE [F10R] | 3.96
NDDSADYQHALQDCVDGLFKEVKE [F10A] | 2.08
NDDSADYQHTLQDCVDGLFKEVKE [F10T] | 2.47
NDDSADYQHGLQDCVDGLFKEVKE [F10G] | 4.53
NYDSADYQHFLQDCVDGLFKEVKE [D2Y] | 1.2
NQDSADYQHFLQDCVDGLFKEVKE [D2Q] | 2.91
NVDSADYQHFLQDCVDGLFKEVKE [D2V] | 1.96
NHDSADYQHFLQDCVDGLFKEVKE [D2H] | 2.66
NMDSADYQHFLQDCVDGLFKEVKE [D2M] | 2.48
NWDSADYQHFLQDCVDGLFKEVKE [D2W] | 2.15
NIDSADYQHFLQDCVDGLFKEVKE [D2I] | 2.18
NDDSADYQHFLQDCEDGLFKEVKE [V15E] | 4.9
NDDSADYQHFLQDCFDGLFKEVKE [V15F] | 3.85
NDDSADYQHFLQDCIDGLFKEVKE [V15I] | 2.68
NDDSADYQHFLQDCGDGLFKEVKE [V15G] | 5.45
NDDSADYQHFLQDCVDGLFKEVIE [K23I] | 1.9
NDDSADYQHFLQDCVDGLFKEVEE [K23E] | 3.72
NDDSADYQHFLQDCVDGLFKEVVE [K23V] | 2.05
NDDSADYQHFLQDCVDGLFKEVTE [K23T] | 1.65

Variant | protein stability index
NDDMADYQHFLQDCVDGLFKEVKE [S4M] | 2.05
NDDFADYQHFLQDCVDGLFKEVKE [S4F] | 2.26
NDDCADYQHFLQDCVDGLFKEVKE [S4C] | 1.56
NDDPADYQHFLQDCVDGLFKEVKE [S4P] | 2.34
NDDSADYQHFLQDCVDALFKEVKE [G17A] | 3.68
NDDSADYQHFLQDCVDNLFKEVKE [G17N] | 2.39
NDDSADYYHFLQDCVDGLFKEVKE [Q8Y] | 1.56
NDDSADYEHFLQDCVDGLFKEVKE [Q8E] | 2.62
NDDSADYPHFLQDCVDGLFKEVKE [Q8P] | 2.64
NDDSADYDHFLQDCVDGLFKEVKE [Q8D] | 2.96
NDDSADYQHFYQDCVDGLFKEVKE [L11Y] | 4.47
NDDSADYQHFQQDCVDGLFKEVKE [L11Q] | 5.4
NDDSADYQHFAQDCVDGLFKEVKE [L11A] | 5.62
NDDSADYQLFLQDCVDGLFKEVKE [H9L] | 2.21
NDDSADYQCFLQDCVDGLFKEVKE [H9C] | 2.53
NDDSADYQHFLQDCVDGLKKEVKE [F19K] | 5.25
NDDSADYQHFLQDCVDGLDKEVKE [F19D] | 5.61
NDDSADYQHFLQDCVDGLRKEVKE [F19R] | 4.46
NDDSADYQHFLQDCVDGLHKEVKE [F19H] | 4.82
NDDSADYQHFLQDCVDGLCKEVKE [F19C] | 3.38
NDDSADYQHFLQDCVDGLNKEVKE [F19N] | 5.21
NDDSADYQHFLQRCVDGLFKEVKE [D13R] | 2.02
NDDSADYQHFLQKCVDGLFKEVKE [D13K] | 2.05
NDDSADYQHFLQYCVDGLFKEVKE [D13Y] | 2.14

Variant | protein stability index
NDDSADYQHFLQPCVDGLFKEVKE [D13P] | 2.27
NDDSADYQHFLQDCVDGLFLEVKE [K20L] | 2.87
NDDSADYQHFLQDCVDGLFCEVKE [K20C] | 3.38
NDDSADYQHFLQDCVDGLFYEVKE [K20Y] | 2.88
NDDSADYQHFLQDCVDGLFTEVKE [K20T] | 4
NDDSADYQHFLEDCVDGLFKEVKE [Q12E] | 4.75
NDDSADYQHFLNDCVDGLFKEVKE [Q12N] | 4.24
NDDSADYQHFLLDCVDGLFKEVKE [Q12L] | 3.31
NDDSADYQHFLTDCVDGLFKEVKE [Q12T] | 4.32
NDDSADYQHFLSDCVDGLFKEVKE [Q12S] | 3.3
NDDSADYQHFLDDCVDGLFKEVKE [Q12D] | 4.83
NDDSADYQHFLFDCVDGLFKEVKE [Q12F] | 3.48
NDDSADYQHFLQDCVDGLFKEAKE [V22A] | 4.42
NDDSADYQHFLQDCVDGLFKEWKE [V22W] | 4.73
NDDSADYQHFLQDCVDGLFKEGKE [V22G] | 5.01
NDDSADYQHFLQDCVDGLFKEHKE [V22H] | 5.31
NDDSADYQHFLQDCVDGLFKEKKE [V22K] | 5.5
NDDSAQYQHFLQDCVDGLFKEVKE [D6Q] | 3.12
NDDSAHYQHFLQDCVDGLFKEVKE [D6H] | 3.3
NDDSADYQHFLQDCVDGLFKEVKF [E24F] | 2.11
NDDSADYQHFLQDCVDGLFKEVKI [E24I] | 2.1
NDDSADYQHFLQDCVDGLFKEVKH [E24H] | 1.88
